Results reported in paper PMC7513463 (Nature, 2020).
Where two headings read alike, the source gives them in different places.

B1: PA0623 tube protein of pyocin R2 (natural protein, Pseudomonas aeruginosa PAO1, UniProt Q9I5S9 1-167, looked up)
chain: MIPQTLTNTNLFIDGVSFAGDVPSLTLPKLAVKTEQYRAGGMDAPVSIDMGLEAMEAKFSTNGARREALNFFGLADQSAFNGVFRGSFKGQKGASVPVVATLRGLLKEVDPGDWKAGEKAEFKYAVAVSYYKLEVDGREVYEIDPVNGVRAINGVDQLAGMRNDLGL
B2: PA0617 sheath initiator protein of pyocin R2 (natural protein, Pseudomonas aeruginosa PAO1, UniProt G3XD42 1-108, looked up)
chain: MIGMDRRSGLPLSGLAHLKQSVEDILTTPLGSRRMRPEYGSKLRRMVDMPVSEGWKSAVQAEVARSLGRWEPRIGLSAVRVVAVVDGRVDLLLSGVFEGENINMEVSA
B3: PA0618 (Tri1) triplex protein of pyocin R2 (natural protein, Pseudomonas aeruginosa PAO1, UniProt G3XCX5 1-295, looked up)
chain: MIIDLSQLPEPEVIENLDFETIYQELLGDFREAMAGEWTAEVESDPVLKLLQLAAYRELLLRARINDAARAVMLAYASGADLDQIGAGFNVQRLLIRPAQPEAVPPVEAQYESDKSLRNRIQLAFEQLSVAGPRNAYIAHALGADGRVADASATSPAPCEVLISVLGVEGNGQAPEAVLQAVRLALNAEDVRPVADRVTVRSAGIVPYQVKAQLYLFPGPEAELIRAAAEASLRDYISAQRRLGRDIRRSALFATLHVEGVQRVELQEPAADVVLDETQAAYCTGYAITLGGVDE
B4: PA0619 (Tri2) triplex protein of pyocin R2 (natural protein, Pseudomonas aeruginosa PAO1, UniProt G3XD92 1-177, looked up)
chain: MSSRLLPPNRSSLERSLGDVLPAELPVPLRELHDPARCEAALLPYLAWTRSVDRWDPDWSDEAKRNAVATSFVLHQRKGTLTALRQVVEPIGALSEVTEWWQRSPTGVPGTFEITVDVSDRGIDEGTVLELERLLDDVRPVSRHLTRLDLRITPVIRSRHGLAVTDGDTLEIFPWKQ
B5: PA0628 hub protein of pyocin R2 (natural protein, Pseudomonas aeruginosa PAO1, UniProt G3XCU8 1-329, looked up)
chain: MQPSFRIVADGTDVTQRLNDRLLKLTLLDKPGMESDSLTLRIDDRDGQVALPRRGAVLEVHLGYAGEPLMRMGRFTVDTLQWAGPPDCLTVTAKAGDMRGSGKTIRSGGWEGTTLAQVCRDVGARNGWRVECPLQVAIARVDQVNESDYHFVTRLARQYDCTAKLAEGMLMVLPRQSGQSATGRRIEPLVLGRADVGSFDVTFDDRSLMRTVKTRYQLPGSGEVKSVELKNPKAPATAMGEHVDRHLYTSRGEAEQAAKARLASFSRSSASVRLELPGRGDLFAERSLLLQGFKAGIDGEFLIDSVEHTYSSSGWTTVVQCNGGRGGKG
B6: PA0622 sheath protein of pyocin R2 (natural protein, Pseudomonas aeruginosa PAO1, UniProt G3XD39 1-386, looked up)
chain: MSFFHGVTVTNVDIGARTIALPASSVIGLCDVFTPGAQASAKPNVPVLLTSKKDAAAAFGIGSSIYLACEAIYNRAQAVIVAVGVETAETPEAQASAVIGGISAAGERTGLQALLDGKSRFNAQPRLLVAPGHSAQQAVATAMDGLAEKLRAIAILDGPNSTDEAAVAYAKNFGSKRLFMVDPGVQVWDSATNAARNAPASAYAAGLFAWTDAEYGFWSSPSNKEIKGVTGTSRPVEFLDGDETCRANLLNNANIATIIRDDGYRLWGNRTLSSDSKWAFVTRVRTMDLVMDAILAGHKWAVDRGITKTYVKDVTEGLRAFMRDLKNQGAVINFEVYADPDLNSASQLAQGKVYWNIRFTDVPPAENPNFRVEVTDQWLTEVLDVA
B7: PA0615 collar protein of pyocin R2 (natural protein, Pseudomonas aeruginosa PAO1, UniProt G3XD82 1-171, looked up)
chain: MPEQAVTLEALYAAIEQVLRERLPEAQLIGFWPGVPENTPAVSLEIAELLPERDPGTGESALLCRLQARIMVPPGADRQAVSIACGIVRTLREQTWNLSLQPARFVRSAVDGSREELKSLRVWLVEWTQSLRLGDPEWAWEDQPPGSLMLGFDPQTGPGHEPDYFAPEALA
B8: PA0616 central spike protein of pyocin R2 (in the native particle) (natural protein)
chain: MSYVSAEHDRMLAAMILPCVVVAVDLAAARVRVRSGDWTSGWLRWHSLAAGKVRHWRAPSIGEQGVLLSPSGGVSMGTFIPGLYGDAGTAPDNSASSETWRFDDGASLSYDWAAHRYRVELPSGTVEVRVGASEVRVSDGAVSLKAPKISLEGPVEIAGTLTVSGDILGGGSIIDTAGNSNHHTH
B9: PA0616 central spike protein, full length, recombinant (natural protein)
chain: B8 chain
B10: PA0626 ripcord protein of pyocin R2 (natural protein, Pseudomonas aeruginosa PAO1, UniProt G3XD65 1-290, looked up)
chain: MAYLEQLQAGLRYLGRAGESGRKSLDKVVAPVNGAISEIRGAAAELENLPGVSPEMAARLQRAMRGIGQAQGKVNRVVSTYDRASRALLGIDERLDALKVQVNSAAQAVGKVAGDISPTLAGVLPSWLLAPSATPPSEAAASLPHLLVLQPLTANAQPFYFNLNTAAFDALQRNSAYNWSGQVRLGRRPALQSVGMGEESILLKGAVFPLRRQVGNQEKVVGLEQLEALRRLAERREPLILSSGYGEVQMGLWCLVRISENQSALLGNGAPRKQTFDLEFKRYGDDLPNR

Tests used:
cryo-EM structure [1] = molecular target: the molecule itself; test: cryo-EM structure
[2] = molecular target: B6; test: cryo-EM structure
[3] = molecular target: B4; test: cryo-EM structure
[4] = molecular target: B3; test: cryo-EM structure
cryo-EM structure [5] = molecular target: the molecule itself; test: cryo-EM structure; remark: listed apart in the source
[6] = molecular target: B6; test: cryo-EM structure; remark: listed apart in the source
crystal structure = molecular target: the molecule itself; test: crystal structure
[7] = molecular target: B5; test: cryo-EM structure

In the case of B1, the “stoichiometry N” value (cryo-EM structure [1]) is reported as 6.

B2: binds [2].

For B3, the “stoichiometry N” value (cryo-EM structure [1]) was 2 and the “stoichiometry N” value [3] was 2 PA0618 per PA0619.

B4: binds [4].

For B5, the “stoichiometry N” value (cryo-EM structure [1]) was 3.

B6: binds (cryo-EM structure [5]).

B7 was tested, and the binding result [6] was “binds” and the “stoichiometry N” value (cryo-EM structure [1]) was 6.

With B8 the “stoichiometry N” value (cryo-EM structure [1]) was 3.

For B9, the “stoichiometry N” value (crystal structure) was 3.

In the case of B10, the “stoichiometry N” value (cryo-EM structure [1]) is reported as 6 and the binding result [7] is reported as “binds”.
